Experimental data published in the supplement of paper PMC10126150.
± gives the standard deviation of the averaged measurements.

Tested on: ATP
Test: switch fluorescence ratio, 500 uM ATP over buffer (Cy3 cluster intensity, sum of 5 cycles each) (fold (ratio)); higher = stronger signal-on switching upon ATP binding; sequences stand for … in TCGTCGGCAGCGTCAGATGTGTATAAGAGACAGTTTTTTTTTTTTTTTTTTTTTTTTT…TC
Details: aptamer strand: ATP DNA aptamer (quencher-CACCTGGGGGAGTATTGCGGAGGAAGG + anchor), 100 nM annealed; ATP concentration: 500 uM
How it was run: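 Switching-strand clusters labelled with Cy3 on a modified Illumina MiSeq flow-cell were annealed to 100 nM quencher-labelled ATP aptamer, imaged in selection buffer, and re-imaged after 15 min with 500 uM ATP at 22 °C. This was done over five cycles with NaOH stripping and re-annealing in between. The fluorescence ratio is summed target-cycle over summed buffer-cycle Cy3 intensity per cluster, averaged per switch-domain sequence, excluding clusters outside 100-1000 RFU.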
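Note: ATP exposure 15 min at 22 °C before imaging.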

Sequence	switch fluorescence ratio
TCGGTGGGGC	1.01 ± 0.019
TCGGTGGTGG	0.997 ± 0.019
TCGGTGTCGC	0.9621 ± 0.0031
TCGGTTAGTA	0.9883 ± 0.0021
TCGGTTCAGC	1.011 ± 0.0024
TCGGTTCCCG	0.981 ± 0.018
TCGGTTTGTT	1 ± 0.0029
TCGTAAAATT	0.986 ± 0.026
TCGTAACACT	1.16 ± 0.0057
TCGTAAGTAA	1.04 ± 0.0094
TCGTAATAGT	1.62 ± 0.068
TCGTAATGGT	1.05 ± 0.083
TCGTACGTGG	0.998 ± 0.016
TCGTAGAATA	1.01 ± 0.032
TCGTAGGGGT	0.995 ± 0.018
TCGTATTTTC	0.994 ± 0.058
TCGTCGATTC	1.12 ± 0.02
TCGTCGCTTT	1.04 ± 0.026
TCGTCGTGGG	1.02 ± 0.025
TCGTCTGCGG	1.04 ± 0.03
TCGTGAGGTT	1.01 ± 0.012
TCGTGAGTAG	0.973 ± 0.017
TCGTGAGTTT	0.996 ± 0.035
TCGTGGCGGA	0.979 ± 0.011
TCGTGGTGGT	0.974 ± 0.018
TCGTGTACTG	1.041 ± 0.006

Sequence	switch fluorescence ratio
TCGTGTGGGG	1.02 ± 0.048
TCGTGTTACT	1.005 ± 0.008
TCGTTACCTT	1.135 ± 0.0013
TCGTTAGGGG	0.999 ± 0.019
TCGTTATCTT	0.979 ± 0.013
TCGTTATGTA	0.992 ± 0.018
TCGTTATTAA	1 ± 0.012
TCGTTATTGT	1.01 ± 0.021
TCGTTATTTG	1.004 ± 0.0078
TCGTTCAGCG	0.997 ± 0.019
TCGTTCGTAT	0.9875 ± 0.004
TCGTTGATGC	1.08 ± 0.08
TCGTTGATTT	1.016 ± 0.01
TCGTTGCAGT	1.02 ± 0.018
TCGTTGCATG	1.01 ± 0.065
TCGTTGGACT	1.01 ± 0.0029
TCGTTGGTGG	0.984 ± 0.06
TCGTTGTTTT	1.0216 ± 0.00093
TCGTTTAACA	0.9602 ± 0.0092
TCGTTTATAT	1.01 ± 0.04
TCGTTTGGTA	0.958 ± 0.027
TCGTTTGGTC	0.986 ± 0.01
TCGTTTGGTT	1.04 ± 0.026
TCGTTTTGCC	0.956 ± 0.02
TCGTTTTGCT	0.981 ± 0.017
TCTAAAGGGA	1.03 ± 0.024

Sequence	switch fluorescence ratio
TCTAAAGGGT	0.9988 ± 0.0021
TCTAAATAGG	0.9908 ± 0.0032
TCTAAGCCAT	1.05 ± 0.017
TCTAAGGATT	1.02 ± 0.022
TCTAAGGGGG	1.015 ± 0.0074
TCTAAGTCCA	0.989 ± 0.068
TCTACGCACT	2.62 ± 0.15
TCTACTGGGC	1.05 ± 0.1
TCTAGAACGC	1.01 ± 0.013
TCTAGACTCA	1.18 ± 0.29
TCTAGCCGGT	0.9878 ± 0.0085
TCTAGGACGT	1.02 ± 0.019
TCTAGTGGCA	0.98 ± 0.038
TCTAGTGTGC	0.9772 ± 0.0086
TCTATCAGGG	0.995 ± 0.011
TCTATCATGA	0.988 ± 0.013
TCTATTAGTA	0.932 ± 0.062
TCTATTATAC	1.23 ± 0.13
TCTATTGAGC	1.032 ± 0.0049
TCTATTGGA	0.9949 ± 0.0037
TCTCAAATTT	0.975 ± 0.029
TCTCAATGCT	1.21 ± 0.2
TCTCACGGGG	1.29 ± 0.33
TCTCGGCATT	1.46 ± 0.23
TCTCGGCTAT	2.98 ± 0.2
TCTCGTGAGA	0.997 ± 0.053

Sequence	switch fluorescence ratio
TCTCTATAGG	0.9834 ± 0.0036
TCTCTATGTG	0.966 ± 0.036
TCTCTATTT	0.965 ± 0.048
TCTCTGTGTT	1.027 ± 0.0019
TCTCTGTTGA	1.01 ± 0.057
TCTGAAAGTC	0.9963 ± 0.0057
TCTGAAGGAG	1.01 ± 0.013
TCTGATGGAA	1.06 ± 0.037
TCTGATTGGT	0.9945 ± 0.0034
TCTGCATGTT	1.02 ± 0.012
TCTGGAAGGC	1.29 ± 0.25
TCTGGAGAGG	1.01 ± 0.034
TCTGGATTCA	0.986 ± 0.027
TCTGGATTGG	0.961 ± 0.029
TCTGGCCGGC	0.986 ± 0.028
TCTGGCGTAA	1.79 ± 1.1
TCTGGGAAAG	1 ± 0.013
TCTGGGGCCG	1.02 ± 0.065
TCTGGGTCGC	1.02 ± 0.017
TCTGGGTTGG	1.013 ± 0.0074
TCTGGTGCAT	1.17 ± 0.14
TCTGGTTAAA	0.982 ± 0.013
TCTGGTTAGC	1.03 ± 0.026
TCTGGTTTGG	1.03 ± 0.049
TCTGTAGCTG	1.3 ± 0.015
TCTGTAGTTG	0.997 ± 0.04

Sequence	switch fluorescence ratio
TCTGTCCG	1.05 ± 0.14
TCTGTCTATA	1.03 ± 0.026
TCTGTCTGAG	0.988 ± 0.027
TCTGTGCCTT	1.06 ± 0.069
TCTGTGTACG	1.04 ± 0.047
TCTGTGTTAT	1 ± 0.026
TCTGTGTTGA	1 ± 0.011
TCTGTTAGGA	1 ± 0.035
TCTGTTCTTG	0.987 ± 0.012
TCTGTTGACG	1.0236 ± 0.00081
TCTGTTGCAG	0.999 ± 0.024
TCTGTTTGTA	0.9816 ± 0.0075
TCTTAAAAT	1.006 ± 0.0097
TCTTAAGGGA	0.979 ± 0.025
TCTTAATTTT	0.973 ± 0.024
TCTTACAATA	1.14 ± 0.091
TCTTACAATC	1.1 ± 0.095
TCTTAGAGGG	0.991 ± 0.017
TCTTAGGAGG	0.9691 ± 0.0023
TCTTAGGCGC	1.03 ± 0.029
TCTTAGGCGT	1.02 ± 0.022
TCTTAGGGGA	0.998 ± 0.017
TCTTAGTTGT	0.988 ± 0.024
TCTTATCTTG	0.978 ± 0.037
TCTTCAAGTT	0.988 ± 0.031
TCTTCCTGGA	1.08 ± 0.039

Sequence	switch fluorescence ratio
TCTTCGTTTT	1.23 ± 0.32
TCTTGAACTT	1 ± 0.018
TCTTGAATGG	0.986 ± 0.0051
TCTTGATCTA	1.015 ± 0.0098
TCTTGATCTG	1.016 ± 0.0021
TCTTGCATGT	1.02 ± 0.028
TCTTGCCGCT	1.01 ± 0.061
TCTTGGATCT	0.987 ± 0.055
TCTTGGGGAC	1.14 ± 0.2
TCTTGGGGGT	1.03 ± 0.049
TCTTGTAACT	1.01 ± 0.017
TCTTGTACGT	1.01 ± 0.03
TCTTTAAAGA	0.9785 ± 0.0083
TCTTTAGGGA	1.02 ± 0.054
TCTTTCATAT	0.9392 ± 0.0062
TCTTTGGGAT	0.962 ± 0.033
TCTTTGTTAC	1.05 ± 0.022
TCTTTTGAGG	1.02 ± 0.056
TCTTTTGGGC	1.02 ± 0.076
TCTTTTTGGA	1.017 ± 0.0079
TCTTTTTGGT	0.992 ± 0.018
TGAAAAAACA	1.02 ± 0.019
TGAAAAAATT	1.02 ± 0.071
